Data from patent US20220380438A1 (OXFORD UNIVERSITY INNOVATION, published 2022).

What was measured:
[1] = biological target: T1, human androgen receptor (AR), full length (human, UniProt P10275 1-920); experiment: NanoBRET, Nluc and HaloTag fusions co-transfected in HEK293T cells
T1 construct: Full-length AR expressed inside transfected HEK293T cells, not on the cell surface; In the NanoBRET assay it was an N- or C-terminal fusion with Nanoluc luciferase or HaloTag; For co-IP the constructs were with or without an N-terminal FLAG tag; Assays were run with or without 10 nM DHT; also called AR1; AR FL
T1 sequence: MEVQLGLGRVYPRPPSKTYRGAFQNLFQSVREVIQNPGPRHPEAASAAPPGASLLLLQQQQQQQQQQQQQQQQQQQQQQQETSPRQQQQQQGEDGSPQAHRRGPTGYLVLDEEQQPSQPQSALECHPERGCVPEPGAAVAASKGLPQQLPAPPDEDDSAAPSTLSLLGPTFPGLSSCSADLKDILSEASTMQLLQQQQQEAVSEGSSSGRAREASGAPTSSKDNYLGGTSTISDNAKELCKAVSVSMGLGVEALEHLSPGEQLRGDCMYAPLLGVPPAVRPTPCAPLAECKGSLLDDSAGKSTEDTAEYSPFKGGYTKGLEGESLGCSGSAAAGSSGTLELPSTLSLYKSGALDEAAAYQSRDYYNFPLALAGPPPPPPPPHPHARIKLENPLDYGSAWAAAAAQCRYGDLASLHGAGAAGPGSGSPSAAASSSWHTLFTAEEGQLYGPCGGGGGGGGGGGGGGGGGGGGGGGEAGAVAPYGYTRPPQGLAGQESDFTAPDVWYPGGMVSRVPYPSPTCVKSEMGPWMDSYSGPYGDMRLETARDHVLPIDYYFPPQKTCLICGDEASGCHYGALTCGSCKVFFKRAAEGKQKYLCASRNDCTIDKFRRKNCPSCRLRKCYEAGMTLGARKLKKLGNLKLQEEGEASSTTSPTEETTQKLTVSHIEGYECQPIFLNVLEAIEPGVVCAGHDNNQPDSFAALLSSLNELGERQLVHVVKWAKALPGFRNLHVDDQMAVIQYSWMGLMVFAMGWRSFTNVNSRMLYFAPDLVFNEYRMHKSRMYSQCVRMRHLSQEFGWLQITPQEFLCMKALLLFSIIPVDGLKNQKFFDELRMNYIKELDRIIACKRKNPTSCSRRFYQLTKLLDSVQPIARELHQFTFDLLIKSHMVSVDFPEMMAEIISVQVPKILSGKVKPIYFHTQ
Description: (§1) To investigate the interaction between AR FL protein and AR2 protein, NanoBRET assay was performed (Promega NanoBRET™ Protein: Protein Interaction System). Briefly, HEK293T cells were co-transfected with a Nanoluc luciferase (Nluc) fusion plasmid and a HaloTag fusion plasmid with Lipofectamine 2000 reagent. Nluc-MDM2 and p53-HaloTag pair was included as the positive control, and Nluc-MDM2 and HaloTag-SMAD4 pair as negative control. At 24 h after transfection, cells were treated with or without 10 nM DHT. HaloTag NanoBRET 618 ligand or DMSO (no-ligand control) was added. At 24 h, NanoBRET Nano-Glo substrate was added and NanoBRET readings at 460 nm and 618 nm were obtained. Mean corrected NanoBRET ratio in milliBRET unit was calculated using the formula: Mean corrected Nanobret ratio, […]

[2] = biological target: the molecule itself; experiment: as above
Description: as §1

- binding result [1]: binds
B1: human androgen receptor splice variant 2 (AR2) (receptor)
chain: MILWLHSLETARDHVLPIDYYFPPQKTCLICGDEASGCHYGALTCGSCKVFFKRAAEGKQKYLCASRNDCTIDKFRRKNCPSCRLRKCYEAGMTLGARKLKKLGNLKLQEEGEASSTTSPTEETTQKLTVSHIEGYECQPIFLNVLEAIEPGVVCAGHDNNQPDSFAALLSSLNELGERQLVHVVKWAKALPGFRNLHVDDQMAVIQYSWMGLMVFAMGWRSFTNVNSRMLYFAPDLVFNEYRMHKSRMYSQCVRMRHLSQEFGWLQITPQEFLCMKALLLFSIIPVDGLKNQKFFDELRMNYIKELDRIIACKRKNPTSCSRRFYQLTKLLDSVQPIARELHQFTFDLLIKSHMVSVDFPEMMAEIISVQVPKILSGKVKPIYFHTQ
notes: Whole AR2 expressed inside transfected HEK293T cells; In the NanoBRET assay it was a fusion with Nanoluc luciferase or HaloTag; For co-IP it was with or without an N-terminal FLAG tag (anti-FLAG M2 beads); also called AR45; AR splice variant 2
- binding result [2]: binds
